Data as given in patent US20260232732A1 (FUNDACI INSTITUT DE RECERCA CONTRA LA LEUC MIA JOSEP …, published 2026).
Values belong to the binder of their own block, whether it stands above or below them. Where no end group is shown, it is not given here. The star is where a group is joined. Biotin = O=C1N[C@H]2[C@H](CS[C@H]2CCCCC(=O)*)N1

Assays:
[1] = molecular target: T1, Pep1-48, N-terminal domain 1 of CCR9, amino acids 1 to 48 (human); assay: BLI, His-tagged scFv on NTA biosensor, Pep1-48 as analyte, 1:1 global fit; paragraph 309 says that Comp-1 does not bind, in agreement with the BLI results of Table 11
T1 construct: Chemically synthesized (Genscript), purity >75%; also called CCR9 N-terminal 1-48 peptide
T1 peptide: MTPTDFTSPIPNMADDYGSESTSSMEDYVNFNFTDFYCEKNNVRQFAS
Procedure: The affinity between the CCR9-N-terminal domain 1 of CCR9 and the different scFvs was determined by Bio-Layer Interferometry (BLI), a technique that allows quantitative and qualitative measurement of biomolecular interactions in real-time. Briefly, scFv were immobilized onto NTA Biosensor (Sartorius) and quantification was performed in an Octet RED384 (Sartorius). scFv were dissolved in PBS (150 mM NaCl, 38 mM Na2HPO4, 12 mM NaH2PO4, pH 7.2) and a buffer containing 0.03% Tween-20 in PBS, pH 7.2 was used for baseline steps.

[2] = molecular target: T2, Peptide 3-BSA (SSMEDYVNFN-C conjugated to BSA) (human); assay: ELISA; Ab 0.5 ug/mL; repI
T2 peptide: SSMEDYVNFNC(BSA)
Procedure: (§1) In brief, plates with each non-conjugated peptide (50 μg/mL) or BSA-conjugated peptide (5 μg/mL) were coated in 0.58M carbonate-bicarbonate buffer pH9.5, 100 μL/well, at 4° C. […] After washing, wells were incubated with the 3, 3′,5,5′-Tetramethylbenzidine (TMB) HRP substrate and reactions were stopped with 2M HCl and OD450 was recorded.

[3] = molecular target: T3, Peptide 4-BSA (SMEDYVNFNF-C conjugated to BSA) (human); assay: ELISA; Ab 0.5 ug/mL; repI
T3 peptide: SMEDYVNFNFC(BSA)
Procedure: as §1

[4] = molecular target: T4, Peptide 1, non-conjugated (MADDYGSEST-C) (human); assay: ELISA; Ab 0.5 ug/mL; repI
T4 construct: With the extra C-terminal Cys
T4 peptide: MADDYGSESTC
Procedure: as §1

[5] = molecular target: T5, Peptide 2, non-conjugated (GSESTSSMED-C) (human); assay: ELISA; Ab 0.5 ug/mL; repI
T5 construct: With the extra C-terminal Cys
T5 peptide: GSESTSSMEDC
Procedure: as §1

[6] = molecular target: T6, Peptide 3, non-conjugated (SSMEDYVNFN-C) (human); assay: ELISA; Ab 0.5 ug/mL; repI
T6 construct: With the extra C-terminal Cys
T6 peptide: SSMEDYVNFNC
Procedure: as §1

[7] = molecular target: T7, Peptide 4, non-conjugated (SMEDYVNFNF-C) (human); assay: ELISA; Ab 0.5 ug/mL; repI
T7 construct: With the extra C-terminal Cys
T7 peptide: SMEDYVNFNFC
Procedure: as §1

[8] = molecular target: T8, BSA (negative control coating) (bovine, UniProt P02769 25-607); assay: ELISA; Ab 0.5 ug/mL; repI
T8 construct: also called Negative control BSA
Procedure: as §1

[9] = molecular target: T9, antigen peptide-BSA (immunisation peptide #1 MADDYGSESTSSMEDYVNFNF-C conjugated to BSA) (human, extra C-terminal Cys conjugated to BSA); assay: ELISA; Ab 0.5 ug/mL; repI
T9 construct: also called Positive control antigen peptide-BSA; MADDY peptide
T9 peptide: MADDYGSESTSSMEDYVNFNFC
Procedure: as §1

[10] = molecular target: T10, Peptide 1-BSA (MADDYGSEST-C conjugated to BSA) (human); assay: ELISA; Ab 0.5 ug/mL; repI
T10 peptide: MADDYGSESTC(BSA)
Procedure: as §1

[11] = molecular target: T11, biotin-peptide TSSMEDYVNF (human); assay: ELISA biotin-peptide; scFv 0.625 ug/mL; repII
T11 peptide: Biotin-TSSMEDYVNF
Procedure: (§2) The peptides were synthesized naked or with a N-terminal Biotin modification with a purity of >98%. All four scFvs were verified by ELISA that can be detected with anti-His antibodies. ELISA was performed for scFv-peptide binding validation. Briefly, naked peptides were coated (50 μg/mL) in 0.58M carbonate-bicarbonate buffer pH9.5, 100 μL/well, 4° C. O/N. Then after blocking (3% BSA-PBS, 300 μL/well 37° C. 1.5 h) and washing (PBS+Tween-20 0.05% v/v (0.05% PBST), wells were incubated with each purified scFv antibody at concentration of 1 μg/mL in PBS at 37° C. 1 h. After washing (0.05% PBST), wells were incubated with secondary antibodies (goat anti-His IgG-HRP) in PBS, 37° C., 30 min. After washing, and incubation with TMB substrate, reactions were stopped with 2M HCl and reading was quantified at OD450.
(§3) ELISA with biotin-conjugated peptides (5 μg/mL) was performed very similar to described above with minor modifications.
(§4) A full curve ELISA was performed for each positive scFv/biotin-peptide pair in order to confirm previous results. Tables 15-17 show ELISA results of the dose-dependent full curve for each positive peptide with scFv “CCR9_HUM”, “Comp-2” and “Comp-3”, respectively.

[12] = molecular target: T12, biotin-peptide SSMEDYVNFN (human); assay: ELISA biotin-peptide; scFv 0.625 ug/mL; repII
T12 peptide: Biotin-SSMEDYVNFN
Procedure: as §2, §3, §4

[13] = molecular target: T13, biotin-peptide SMEDYVNFNF (human); assay: ELISA biotin-peptide; scFv 0.625 ug/mL; repII
T13 peptide: Biotin-SMEDYVNFNF
Procedure: as §2, §3, §4

[14] = molecular target: T14, biotin-peptide MEDYVNFNFT (human); assay: ELISA biotin-peptide; scFv 0.625 ug/mL; repII
T14 peptide: Biotin-MEDYVNFNFT
Procedure: as §2, §3, §4

[15] = molecular target: T11, biotin-peptide TSSMEDYVNF; assay: ELISA biotin-peptide; scFv 0.15625 ug/mL; repII
Procedure: as §2, §3, §4

[16] = molecular target: T12, biotin-peptide SSMEDYVNFN; assay: ELISA biotin-peptide; scFv 0.15625 ug/mL; repII
Procedure: as §2, §3, §4

[17] = molecular target: T13, biotin-peptide SMEDYVNFNF; assay: ELISA biotin-peptide; scFv 0.15625 ug/mL; repII
Procedure: as §2, §3, §4

[18] = molecular target: T14, biotin-peptide MEDYVNFNFT; assay: ELISA biotin-peptide; scFv 0.15625 ug/mL; repII
Procedure: as §2, §3, §4

T8 sequence (P02769 25-607 limits assumed): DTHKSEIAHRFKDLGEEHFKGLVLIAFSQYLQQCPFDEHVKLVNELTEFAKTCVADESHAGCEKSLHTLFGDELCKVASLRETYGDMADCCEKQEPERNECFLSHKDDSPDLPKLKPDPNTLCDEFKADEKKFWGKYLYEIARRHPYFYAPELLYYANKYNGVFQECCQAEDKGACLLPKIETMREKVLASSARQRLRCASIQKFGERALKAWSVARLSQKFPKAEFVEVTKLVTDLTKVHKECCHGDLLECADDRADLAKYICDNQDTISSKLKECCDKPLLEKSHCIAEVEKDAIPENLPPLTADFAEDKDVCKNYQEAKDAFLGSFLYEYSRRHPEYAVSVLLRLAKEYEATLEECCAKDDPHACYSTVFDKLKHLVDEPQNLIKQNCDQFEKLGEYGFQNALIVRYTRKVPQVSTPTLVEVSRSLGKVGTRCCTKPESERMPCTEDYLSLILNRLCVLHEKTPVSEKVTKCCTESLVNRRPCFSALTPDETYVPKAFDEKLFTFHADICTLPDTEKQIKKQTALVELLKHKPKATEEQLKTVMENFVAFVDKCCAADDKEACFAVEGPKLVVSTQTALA

binding result [1]: no binding
B1: Comparative antibody 1 (Comp-1) scFv, SEQ ID NO: 10 from WO2023/037125 A1, His-tagged (scFv)
scFv: QVQLKESGPGLVQPSQTLSLTCTVSGFSVASYDMHWVRLPPGKGLEWMGIIWANGNTHYNSGLKSRLSISRDTSKSQVFLKMNSLQTEDTAIYFCTRGGFAYWGQGTLVTVSSGGGGSGGGGSGGGGSGGGGSDVVMTQTPVSLSVSLGGQVSISCRSSQSLVHNNGNTYLSWYLQKPGQSPQLLIYKVSNRFSGVSDRFSGSGSGTDFTLKISRVEPDDLGVYYCGQGTQYPTFGGGTKLELKHHHHHH

OD450 [2]: 2.03 OD | OD450 [3]: 2.67 OD | OD450 [4]: 0.01 OD | OD450 [5]: 0.02 OD | OD450 [6]: 1.94 OD | OD450 [7]: 2.29 OD | OD450 [8]: 0.02 OD | OD450 [9]: 2.44 OD | OD450 [10]: 0.03 OD
B2: anti-CCR9 antibody clone 115 (murine, from hybridoma #115) (antibody, V domains shown)
VH: QVQLKQSGPELVKPGTSVRVSCTASGYSFTDYIIYWVKQSHGRSLEWIGYIDPNNYNTRYSQKFKGKATLTVDKSSTSAFMHLNSLTSDDSAVYYCARDVYWGQGTTLTVSS
VL: DVVMTQTPLSLTVSLGDQASISCRSSQSLVHSNGKTYLQWYLQKPGQSPKLLIYKVSNRFSGVPDRFSGSGSGTDFTLKISRVEAEDLGVYFCAQSTHVWTFGGGTKLEIKR
notes: Mouse IgG1

OD450 [11]: 0.67 OD | OD450 [12]: 1.74 OD | OD450 [13]: 1.67 OD | OD450 [14]: 1.46 OD | OD450 [15]: 0.18 OD | OD450 [16]: 1.59 OD | OD450 [17]: 1.6 OD | OD450 [18]: 1.37 OD
B3: CCR9_HUM2 scFv (humanized anti-CCR9 scFv, SEQ ID NO: 17 with C-terminal 6xHis tag) (scFv)
scFv: QVQLVQSGAEVKKPGASVKVSCTASGYSFTDYIIYWVKQAHGQSLEWMGYIDPNNYNTRYSQKFQGKVTITVDKSSTSAYMELNSLTSDDTAVYYCARDVYWGQGTTVTVSSGGGGSGGGGSGGGGSGGGGSDVVMTQTPLSLSVTPGQPASISCRSSQSLVHSNGKTYLQWYLQKPGQSPKLLIYKVSNRFSGVPDRFSGSGSGTDFTLKISRVEAEDVGVYFCAQSTHVWTFGGGTKVEIKRAHHHHHH
